Paper PMC4761300 (Molecular cell, 2016)

Molecular target: the molecule itself
Experiment: SDS-PAGE of bicelle-reconstituted peptide

With RNRLWLLTILVLLIPLVFIYRKYRKRKS [mouse Fas-TM (transmembrane domain peptide of mouse Fas)] the “stoichiometry N” value was 3.

RSNLGWLSLLLLPIPLIVWVKRKEVQKT [human Fas-TM (transmembrane domain peptide of human Fas, C178S)] was tested, and the “stoichiometry N” value was 3.
